Article PMC6358605

B1: Full-length mouse MANF (wild-type), Q9CXI5 E153A (protein)
chain: LRPGDCEVCISYLGRFYQDLKDRDVTFSPATIEEELIKFCREARGKENRLCYYIGATDDAATKIINEVSKPLAHHIPVEKICEKLKKKDSQICELKYDKQIDLSTVDLKKLRVKELKKILDDWGEMCKGCAAKSDYIRKINELMPKYAPKAASARTDL
B2: Full-length mouse MANF (wild-type), Q9CXI5 R23A (protein)
chain: LAPGDCEVCISYLGRFYQDLKDRDVTFSPATIEEELIKFCREARGKENRLCYYIGATDDAATKIINEVSKPLAHHIPVEKICEKLKKKDSQICELKYDNQIDLSTVDLKKLRVKELKKILDDWGEMCKGCAEKSDYIRKINELMPKYAPKAASARTDL
B3: Full-length mouse MANF (wild-type), Q9CXI5 R133E (protein)
chain: LRPGDCEVCISYLGRFYQDLKDRDVTFSPATIEEELIKFCREARGKENRLCYYIGATDDAATKIINEVSKPLAHHIPVEKICEKLKKKDSQICELKYDKQIDLSTVDLKKLEVKELKKILDDWGEMCKGCAEKSDYIRKINELMPKYAPKAASARTDL
B4: Full-length mouse MANF (wild-type), Q9CXI5 K138A (protein)
chain: LRPGDCEVCISYLGRFYQDLKDRDVTFSPATIEEELIKFCREARGKENRLCYYIGATDDAATKIINEVSKPLAHHIPVEKICEKLKKKDSQICELKYDNQIDLSTVDLKKLRVKELAKILDDWGEMCKGCAEKSDYIRKINELMPKYAPKAASARTDL

Target: biotinylated AviTag-BiP^19–413 (NBD), G3I8R9
Sequence (G3I8R9 19-413): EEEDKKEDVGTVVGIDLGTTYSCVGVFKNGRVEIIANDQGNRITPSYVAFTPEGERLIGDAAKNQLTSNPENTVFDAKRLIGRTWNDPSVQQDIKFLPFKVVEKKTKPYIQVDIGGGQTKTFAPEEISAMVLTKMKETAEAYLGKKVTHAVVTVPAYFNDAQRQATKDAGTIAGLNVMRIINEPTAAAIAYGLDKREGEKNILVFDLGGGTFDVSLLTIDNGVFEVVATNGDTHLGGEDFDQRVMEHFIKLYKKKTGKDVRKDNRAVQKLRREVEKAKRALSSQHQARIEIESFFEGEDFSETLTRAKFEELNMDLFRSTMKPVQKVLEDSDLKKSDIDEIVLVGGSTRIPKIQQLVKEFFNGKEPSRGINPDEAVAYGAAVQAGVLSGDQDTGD
Assay: BLI
Conditions: chain shown with the change; for response: equilibrium signal, read off a plot; for other: K1/2 max: streptavidin biosensors loaded with biotinylated BiP NBD, equilibrium signal vs [MANF] 0-100 µM, parent: 13.9

Row | response (50 µM MANF, parent: est. 0.68) | response (100 µM MANF, parent: est. 0.78) | other: K1/2 max (R2 0.978) | other: K1/2 max (R2 0.913) | Binder
1 | 0.17 nm | 0.24 nm | – | – | B1
2 | 0.52 nm | 0.58 nm | 15.3 µM | – | B2
3 | 0.1 nm | 0.13 nm | – | – | B3
4 | 0.3 nm | 0.42 nm | – | 31 µM | B4
